The PETadex activity labels (doi:10.1016/j.enzmictec.2020.109715)

What was measured:
BHET = settings: pH 7; 40 °C; part of the chain shown
p-NP-C2 = settings: pH 7; 40 °C; part of the chain shown
p-NP-C4 = settings: pH 7; 40 °C; part of the chain shown
pNP-C8 [1] = test: Proxy for plastic degradation [Relative activity]
PET = test: Proxy for plastic degradation [Released monomer concentration (HPLC/LC-MS) (MHET+TPA+BHET)]; settings: pH 8
pNP-C8 [2] = test: Proxy for plastic degradation [p-nitrophenol (pNP) release] (% relative activity)

B1: unnamed (protein)
chain: QSNPYQRGPNPTRSALTTDGPFSVATYSVSRLSVSGFGGGVIYYPTGTTLTFGGIAMSPGYTADASSLAWLGRRLASHGFVVIVINTNSRLDFPDSRASQLSAALNYLRTSSPSAVRARLDANRLAVAGHSMGGGATLRISEQIPTLKAGVPLTPWHTDKTFNTPVPQLIVGAEADTVAPVSQHAIPFYQNLPSTTPKVYVELDNATHFAPNSPNAAISVYTISWMKLWVDNDTRYRQFLCNVNDPALSDFRSNNRHCQ
Km (BHET): 0.0168 M
kcat (BHET): 7.3 s⁻¹
kcat/Km (BHET): 435 s⁻¹ M⁻¹
Km (p-NP-C2): 1.15 mM
kcat (p-NP-C2): 131 s⁻¹
kcat/Km (p-NP-C2): 114000 s⁻¹ M⁻¹
Km (p-NP-C4): 300 µM
kcat (p-NP-C4): 53.9 s⁻¹
kcat/Km (p-NP-C4): 180000 s⁻¹ M⁻¹

B2: unnamed (protein)
chain: MNFPRASRLMQAAVLGGLMAVSAAATAQTNPYARGPNPTAASLEASAGPFTVRSFTVSRPSGYGAGTVYYPTNAGGTVGAIAIVPGYTARQSSIKWWGPRLASHGFVVITIDTNSTLDQPSSRSSQQMAALRQVASLNGTSSSPIYGKVDTARMGVMGWSMGGGGSLISAANNPSLKAAAPQAPWDSSTNFSSVTVPTLIFACENDSIAPVNSSALPIYDSMSRNAKQFLEINGGSHSCANSGNSNQALIGKKGVAWMKRFMDNDTRYSTFACENPNSTRVSDFRTANCSLEHHHHHH
Proxy for plastic degradation (pNP-C8 [1]; 5 °C): 100%
Proxy for plastic degradation (pNP-C8 [1]; 30 °C): 80%
Proxy for plastic degradation (pNP-C8 [1]; 35 °C): 100%
Proxy for plastic degradation (pNP-C8 [1]; pH 3): 10%
Proxy for plastic degradation (pNP-C8 [1]; pH 4): 20%
Proxy for plastic degradation (pNP-C8 [1]; pH 5): 65%
Proxy for plastic degradation (pNP-C8 [1]; pH 6): 95%
Proxy for plastic degradation (pNP-C8 [1]; pH 7): 98%
Proxy for plastic degradation (pNP-C8 [1]; pH 8): 100%
Proxy for plastic degradation (pNP-C8 [1]; pH 9): 95%
Proxy for plastic degradation (pNP-C8 [1]; pH 10): 70%
Proxy for plastic degradation (PET; 30 °C): 1.8 mM
Proxy for plastic degradation (PET; 40 °C): 2.2 mM
Proxy for plastic degradation (PET; 50 °C): 0.8 mM
Proxy for plastic degradation (PET; 60 °C): 0.4 mM
Proxy for plastic degradation (PET; 70 °C): 0.2 mM
Proxy for plastic degradation (PET; 80 °C): 0.1 mM

B3: unnamed (protein)
chain: MNFPRASRLMQAAVLGGLMAVSAAATAQTNPYARGPNPTAASLEASAGPFTVRSFTVSRPSGYGAGTVYYPTNAGGTVGAIAIVPGYTARQSSIKWWGPRLASHGFVVITIDTNSTLDQPSSRSSQQMAALRQVASLNGTSSSPIYGKVDTARMGVMGWSMGGGGSLISAANNPSLKAAAPQAPWDSSTNFSSVTVPTLIFACENDSIAPVNSSALPIYDSMSRNAKQFLEINGGSHSCANSGNSNQALIGKKGVAWMKRFMDNDTRYSTFACENPNSTRVSDFRTANCS
Proxy for plastic degradation (pNP-C8 [2]; pH 3, part of the chain shown): 10
Proxy for plastic degradation (pNP-C8 [2]; pH 4, part of the chain shown): 17
Proxy for plastic degradation (pNP-C8 [2]; pH 5, part of the chain shown): 62
Proxy for plastic degradation (pNP-C8 [2]; pH 6, part of the chain shown): 94
Proxy for plastic degradation (pNP-C8 [2]; pH 7, part of the chain shown): 98
Proxy for plastic degradation (pNP-C8 [2]; pH 8, 5 °C, part of the chain shown): 100
Proxy for plastic degradation (pNP-C8 [2]; pH 8, 30 °C, part of the chain shown): 80
Proxy for plastic degradation (pNP-C8 [2]; pH 8, 35 °C, part of the chain shown): 100
Proxy for plastic degradation (pNP-C8 [2]; pH 8, part of the chain shown): 100
Proxy for plastic degradation (pNP-C8 [2]; pH 9, part of the chain shown): 96
Proxy for plastic degradation (pNP-C8 [2]; pH 10, part of the chain shown): 69

B4: unnamed (protein)
chain: MDGVLWRVRTAALMAALLALAAWALVWASPSVEAQSNPYQRGPNPTRSALTADGPFSVATYTVSRLSVSGFGGGVIYYPTGTSLTFGGIAMSPGYTADASSLAWLGRRLASHGFVVLVINTNSRFDYPDSRASQLSAALNYLRTSSPSAVRARLDANRLAVAGHSMGGGGTLRIAEQNPSLKAAVPLTPWHTDKTFNTSVPVLIVGAEADTVAPVSQHAIPFYQNLPSTTPKVYVELDNASHFAPNSNNAAISVYTISWMKLWVDNDTRYRQFLCNVNDPALSDFRTNNRHCQ
Proxy for plastic degradation (pNP-C8 [2]; pH 3): 0
Proxy for plastic degradation (pNP-C8 [2]; pH 4): 17
Proxy for plastic degradation (pNP-C8 [2]; pH 5): 69
Proxy for plastic degradation (pNP-C8 [2]; pH 6): 100
Proxy for plastic degradation (pNP-C8 [2]; pH 7): 100
Proxy for plastic degradation (pNP-C8 [2]; pH 8): 89
Proxy for plastic degradation (pNP-C8 [2]; pH 8, 5 °C): 100
Proxy for plastic degradation (pNP-C8 [2]; pH 8, 30 °C): 32
Proxy for plastic degradation (pNP-C8 [2]; pH 8, 35 °C): 47
Proxy for plastic degradation (pNP-C8 [2]; pH 9): 54
Proxy for plastic degradation (pNP-C8 [2]; pH 10): 0

B5: unnamed (protein)
chain: SNPYQRGPNPTRSALTADGPFSVATYTVSRLSVSGFGGGVIYYPTGTSLTFGGIAMSPGYTADASSLAWLGRRLASHGFVVLVINTNSRFDYPDSRASQLSAALNYLRTSSPSAVRARLDANRLAVAGHSMGGGGTLRIAEQNPSLKAAVPLTPWHTDKTFNTSVPVLIVGAEADTVAPVSQHAIPFYQNLPSTTPKVYVELDNASHFAPNSNNAAISVYTISWMKLWVDNDTRYRQFLCNVNDPALSDFRTNNRHCQ
Proxy for plastic degradation (pNP-C8 [1]; 5 °C, part of the chain shown): 100%
Proxy for plastic degradation (pNP-C8 [1]; 30 °C, part of the chain shown): 35%
Proxy for plastic degradation (pNP-C8 [1]; 35 °C, part of the chain shown): 48%
Proxy for plastic degradation (pNP-C8 [1]; pH 3, part of the chain shown): 0%
Proxy for plastic degradation (pNP-C8 [1]; pH 4, part of the chain shown): 20%
Proxy for plastic degradation (pNP-C8 [1]; pH 5, part of the chain shown): 70%
Proxy for plastic degradation (pNP-C8 [1]; pH 6, part of the chain shown): 100%
Proxy for plastic degradation (pNP-C8 [1]; pH 7, part of the chain shown): 100%
Proxy for plastic degradation (pNP-C8 [1]; pH 8, part of the chain shown): 90%
Proxy for plastic degradation (pNP-C8 [1]; pH 9, part of the chain shown): 55%
Proxy for plastic degradation (pNP-C8 [1]; pH 10, part of the chain shown): 0%
Proxy for plastic degradation (PET; 30 °C, part of the chain shown): 0 mM
Proxy for plastic degradation (PET; 40 °C, part of the chain shown): 0.4 mM
Proxy for plastic degradation (PET; 50 °C, part of the chain shown): 1.5 mM
Proxy for plastic degradation (PET; 60 °C, part of the chain shown): 3.8 mM
Proxy for plastic degradation (PET; 70 °C, part of the chain shown): 5.8 mM
Proxy for plastic degradation (PET; 80 °C, part of the chain shown): 4 mM

B6: unnamed (protein)
chain: MQVVLGRVRSAGLLAALLALAAWALVWASPSAEAQSNPYQRGPNPTRSALTTDGPFSVATYSVSRLSVSGFGGGVIYYPTGTTLTFGGIAMSPGYTADASSLAWLGRRLASHGFVVIVINTNSRLDFPDSRASQLSAALNYLRTSSPSAVRARLDANRLAVAGHSMGGGATLRISEQIPTLKAGVPLTPWHTDKTFNTPVPQLIVGAEADTVAPVSQHAIPFYQNLPSTTPKVYVELDNATHFAPNSPNAAISVYTISWMKLWVDNDTRYRQFLCNVNDPALSDFRSNNRHCQ
Proxy for plastic degradation (pNP-C8 [1]; 5 °C): 100%
Proxy for plastic degradation (pNP-C8 [1]; 30 °C): 20%
Proxy for plastic degradation (pNP-C8 [1]; 35 °C): 30%
Proxy for plastic degradation (pNP-C8 [1]; pH 3): 0%
Proxy for plastic degradation (pNP-C8 [1]; pH 4): 20%
Proxy for plastic degradation (pNP-C8 [1]; pH 5): 70%
Proxy for plastic degradation (pNP-C8 [1]; pH 6): 95%
Proxy for plastic degradation (pNP-C8 [1]; pH 7): 100%
Proxy for plastic degradation (pNP-C8 [1]; pH 8): 100%
Proxy for plastic degradation (pNP-C8 [1]; pH 9): 90%
Proxy for plastic degradation (pNP-C8 [1]; pH 10): 15%
Proxy for plastic degradation (pNP-C8 [2]; pH 3): 0
Proxy for plastic degradation (pNP-C8 [2]; pH 4): 17
Proxy for plastic degradation (pNP-C8 [2]; pH 5): 69
Proxy for plastic degradation (pNP-C8 [2]; pH 6): 94
Proxy for plastic degradation (pNP-C8 [2]; pH 7): 100
Proxy for plastic degradation (pNP-C8 [2]; pH 8): 100
Proxy for plastic degradation (pNP-C8 [2]; pH 8, 5 °C): 100
Proxy for plastic degradation (pNP-C8 [2]; pH 8, 30 °C): 21
Proxy for plastic degradation (pNP-C8 [2]; pH 8, 35 °C): 30
Proxy for plastic degradation (pNP-C8 [2]; pH 9): 88
Proxy for plastic degradation (pNP-C8 [2]; pH 10): 11
Proxy for plastic degradation (PET; 30 °C): 0 mM
Proxy for plastic degradation (PET; 40 °C): 0.2 mM
Proxy for plastic degradation (PET; 50 °C): 1.1 mM
Proxy for plastic degradation (PET; 60 °C): 3.8 mM
Proxy for plastic degradation (PET; 70 °C): 6.2 mM
Proxy for plastic degradation (PET; 80 °C): 4.9 mM
